# Results published in US20190248900A1 (Y BIOLOGICS, published 2019).
# B1: PD1-45D6(A/3H7) (antibody, V domains shown)
# VH: QVQLVESGGGVVQPGRSLRLSCAASGFTFSSYAMHWVRQVPGKGLEWVAVISYDGNDKYYADSVKGRFTISRDNSKNTLYLQMNSLRAEDTAVYYCVPTTFEYWGQGSQVTVSS
# VL: DIVMTQTPLSLPVTPGEPASISCRSSQSLLDSDDGNTYLDWYLQKPGQSPQLLIYTLSHRASGVPGRFSGSGSGTEFNLRISRVEAEDVGIYYCMQRVEFPFTFGQGTKLEIK
# notes: scFv-phage in the screening ELISA; whole IgG in the other assays; also called 45D6-3H7; PD1 45D6 3H7
# B2: PD1-48A9 (antibody, V domains shown)
# VH: QMQLVQSGAEVKKPGSSVKVSCKASGDTFTRYIINWVRQAPGQGLEWMGRVIPTLGLTTYAQNFQDTVTIIADKSTNTAYMELKNLRSEDTAVYYCARGYGSGAFDIWGQGTMITVSS
# VL: DIVMTQTPLSLPVTPGEPASISCRSSQSLLDSHDGNTYLDWYLQKPGQSPQLLIYTLSHRASGVPDRFSGSGSGTDFTLKISRVEAEDVGLYYCMQRIDFPYTFGQGTKVEIK
# notes: scFv-phage in the screening ELISA; whole IgG in the other assays
# B3: PD1-49A2(A/2A6) (antibody, V domains shown)
# VH: QVQLVESGGGVVQPGRSLRLSCAASGFTFKYYAMHWVRQAPGKGLEWVTVISYDGQYKYYADSVKGRFTISRDNSKNTLYLQMNSLRAEDTAVYYCTTTTFDSWGQGTLVTVSS
# VL: DIVMTQTPLSLPVTPGEAASISCRSSQSLLDSEDGNTYLDWYLQRPGQSPQLLIYTLSHRASGVPGRFSGSGSGTEFNLRISRVEAEDVGIYYCMQRVEFPFTFGQGTKVEIK
# notes: scFv-phage in the screening ELISA; whole IgG in the other assays; also called 49A2-2A6; PD1 49A2 2A6
# B4: PD1-45D6(A/5B5) (antibody, V domains shown)
# VH: QVQLVESGGGVVQPGRSLRLSCAASGFTFRTYAMHWVRQAPGKGLEWVAVISYDGNDKYYADSVKGRFTISRDNSKNTLYLQMNSLRAEDTAVYYCVPTTFEYWGQGTLVTVSS
# VL: DIVMTQTPLSLPVMPGEAASISCRSSQSLLDSEDGNTYLDWYLQKPGQSPQLLIYTLSHRASGVPDRFSGSGSGTDFTLKISRVEADDVGIYYCMQRVEFPFTFGQGTKVEIK
# notes: scFv-phage in the screening ELISA; whole IgG in the other assays; also called 45D6-5B5; PD1 45D6 5B5
# B5: PD1-49A2(A/1B2) (antibody, V domains shown)
# VH: QVQLVESGGGVVQPGRSLRLSCAASGFTFLRYAMHWVRQAPGKGLEWVAVISYDGQDKYYADSVKGRFTISRDNSKNTLYLQMNSLRAEDTAVYYCTTTTFDSWGRGTLVTVSS
# VL: DIVMTQTPLSLPVTPGEPASISCRSSQSLLDSDDGNTYLDWYLQKPGQSPQLLIYTLSHRASGVPDRFSGSGSGTEFNLRISRVEAEDVGIYYCMQRVEFPFTFGQGTKLEIK
# notes: scFv-phage in the screening ELISA; whole IgG in the other assays; also called 49A2-1B2; PD1 49A2 1B2
# B6: PD1-45D6(A/3D2) (antibody, V domains shown)
# VH: QVQLVESGGGVVQPGRSLRLSCAASGFTFSSYAMHWVRQVPGKGLEWVAVISYDGNDKYYADSVKGRFTISRDNSKNTLYLQMNSLRAEDTAVYYCVPTTFEYWGQGSQVTVSS
# VL: DIVMTQTPLSLPVTPGEAASISCRSSQSLLDSEDGNTYLDWYLQKPGQSPQLLIYTLSHRASGVPDRFSGSGSGTDFTLKISRVEAEDVGIYYCMQRVEFPFTFGQGTKVEIK
# notes: scFv-phage in the screening ELISA; whole IgG in the other assays; also called 45D6-3D2; PD1 45D6 3D2
# B7: PD1-49A2(A/1H8) (antibody, V domains shown)
# VH: QVQLVESGGGVVQPGRSLRLSCAASGFTFKTYAMHWVRQAPGKGLEWVAVISYDGQHKYYADSVKGRFTISRDNSKNTLYLQMNSLRAEDTAVYYCTTTTFDSWGQGTLVTVSS
# VL: DIVMTQTPLSLPVTPGEPASISCRSSQSLLDRDGGHTYVDWYLQKPGQSPRLLIYTLSHRALGVPDRFSGSGSGTDFTLKISRVEADDVGLYYCMQRIEFPFTFGQGTKVEIK
# notes: scFv-phage in the screening ELISA; whole IgG in the other assays; also called 49A2-1H8; PD1 49A2 1H8
# B8: mPDL2-mFC (Fc fusion, mouse (prefix m on the sheet), UniProt Q9WUL5 20-221, looked up)
# ligand fused to Fc: LFTVTAPKEVYTVDVGSSVSLECDFDRRECTELEGIRASLQKVENDTSLQSERATLLEEQLPLGKALFHIPSVQVRDSGQYRCLVICGAAWDYKYLTVKVKASYMRIDTRILEVPGTGEVQLTCQARGYPLAEVSWQNVSVPANTSHIRTPEGLYQVTSVLRLKPQPSRNFSCMFWNAHMKELTSAIIDPLSRMEPKVPRTW
# notes: mFC fusion
# Legend:
# PD1-hFc = molecular target: T1, PD1-hFc (human, UniProt Q15116 25-170); assay: SPR ProteOn XPR36, PD1-hFc immobilised, antibody as analyte
# T1 construct: extracellular domain; also called PD1-hFc protein; Human PD-1-Fc (S1420, Y-Biologics)
# T1 sequence (Q15116 other isoform, or with tags, fused parts or gaps limits assumed): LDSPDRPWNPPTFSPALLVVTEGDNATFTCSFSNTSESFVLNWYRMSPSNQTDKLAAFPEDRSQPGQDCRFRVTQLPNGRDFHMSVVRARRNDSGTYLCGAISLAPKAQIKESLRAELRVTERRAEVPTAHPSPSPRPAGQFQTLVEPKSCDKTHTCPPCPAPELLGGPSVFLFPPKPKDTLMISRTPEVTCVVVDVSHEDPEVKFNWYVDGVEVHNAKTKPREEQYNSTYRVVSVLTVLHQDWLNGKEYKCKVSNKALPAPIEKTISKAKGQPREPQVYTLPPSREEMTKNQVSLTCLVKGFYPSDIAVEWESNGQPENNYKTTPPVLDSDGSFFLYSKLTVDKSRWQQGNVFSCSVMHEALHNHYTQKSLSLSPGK
# Procedure: A ProteOn XPR36 (BioRad) instrument was used. The GLC sensor chip (BioRad) was mounted on the instrument and washed with PBST buffer, and the carboxymethyldextran surface was activated with an EDC/sulfo-NHS mixed solution. PD1-hFc dissolved at a concentration of 5 ug/ml in a 10 mM sodium acetate buffer solution (pH 5.0) was injected and immobilized on the GLC sensor chip.
# In order to deactivate the activated carboxyl groups that remain unreacted with the PD1 protein, 1 M ethanolamine was flowed and 10 mM glycine (pH 2.0) was injected in order to wash proteins that remain unbound to the sensor chip.
# The equilibrium dissociation constant (KD) was calculated by plotting and fitting the sensogram data in the equilibrium state depending on concentration.
# [1] = molecular target: T2, human PD-1 (NM_005018.2) over-expressed on cells (human, UniProt Q15116 25-288); assay: cell-based or functional assay
# T2 sequence (Q15116 25-288): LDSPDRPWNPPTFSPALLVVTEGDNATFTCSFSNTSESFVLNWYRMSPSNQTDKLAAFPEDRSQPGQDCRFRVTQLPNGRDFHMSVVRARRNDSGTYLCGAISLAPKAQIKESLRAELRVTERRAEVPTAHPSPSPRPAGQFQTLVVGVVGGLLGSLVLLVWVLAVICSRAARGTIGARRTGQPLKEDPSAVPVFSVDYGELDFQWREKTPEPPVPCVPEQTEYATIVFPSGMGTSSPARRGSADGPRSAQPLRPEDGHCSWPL
# [2] = molecular target: T2, human PD-1 (NM_005018.2) over-expressed …; assay: cell-based or functional assay; remark: listed apart in the source
# M12 = molecular target: T3, M12; assay: scFv-phage ELISA
# T3 construct: also called PD1 mutant M12
# [3] = molecular target: T4, antigen PD1 (coated, construct not stated) (UniProt Q15116 25-170, limits assumed); assay: scFv-phage ELISA
# T4 construct: also called PD1 antigen; PDCD1
# T4 sequence (Q15116 25-170 limits assumed): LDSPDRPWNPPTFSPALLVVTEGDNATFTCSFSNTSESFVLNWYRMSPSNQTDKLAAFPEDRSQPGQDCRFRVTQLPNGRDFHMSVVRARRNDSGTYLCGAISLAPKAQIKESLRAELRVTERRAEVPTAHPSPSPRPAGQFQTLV
# M5-1 = molecular target: T5, M5-1; assay: scFv-phage ELISA
# T5 construct: also called PD1 mutant M5-1
# M8 = molecular target: T6, M8; assay: scFv-phage ELISA
# T6 construct: also called PD1 mutant M8
# M5 = molecular target: T7, M5; assay: scFv-phage ELISA
# T7 construct: also called PD1 mutant M5
# M1-1 = molecular target: T8, M1-1; assay: scFv-phage ELISA
# T8 construct: also called PD1 mutant M1-1
# M2-1 = molecular target: T9, M2-1; assay: scFv-phage ELISA
# T9 construct: also called PD1 mutant M2-1
# M14 = molecular target: T10, M14; assay: scFv-phage ELISA
# T10 construct: also called PD1 mutant M14
# M11 [4] = molecular target: T11, M11; assay: scFv-phage ELISA
# T11 construct: also called PD1 mutant M11
# M2 = molecular target: T12, M2; assay: scFv-phage ELISA
# T12 construct: also called PD1 mutant M2
# M5-2 = molecular target: T13, M5-2; assay: scFv-phage ELISA
# T13 construct: also called PD1 mutant M5-2
# M1-2 = molecular target: T14, M1-2; assay: scFv-phage ELISA
# T14 construct: also called PD1 mutant M1-2
# M7-2 = molecular target: T15, M7-2; assay: scFv-phage ELISA
# T15 construct: also called PD1 mutant M7-2
# M9 = molecular target: T16, M9; assay: scFv-phage ELISA
# T16 construct: also called PD1 mutant M9
# M7 = molecular target: T17, M7; assay: scFv-phage ELISA
# T17 construct: also called PD1 mutant M7
# M1 = molecular target: T18, M1; assay: scFv-phage ELISA
# T18 construct: also called PD1 mutant M1
# M7-1 = molecular target: T19, M7-1; assay: scFv-phage ELISA
# T19 construct: also called PD1 mutant M7-1
# M10 = molecular target: T20, M10; assay: scFv-phage ELISA
# T20 construct: also called PD1 mutant M10
# M3 = molecular target: T21, M3; assay: scFv-phage ELISA
# T21 construct: also called PD1 mutant M3
# M13 = molecular target: T22, M13; assay: scFv-phage ELISA
# T22 construct: also called PD1 mutant M13
# M2-2 = molecular target: T23, M2-2; assay: scFv-phage ELISA
# T23 construct: also called PD1 mutant M2-2
# M6 = molecular target: T24, M6; assay: scFv-phage ELISA
# T24 construct: also called PD1 mutant M6
# ITGA6-Fc [5] = molecular target: T25, ITGA6-Fc; assay: scFv-phage ELISA
# T25 construct: Fc fusion
# T25 sequence (P23229 whole entry, species assumed, looked up): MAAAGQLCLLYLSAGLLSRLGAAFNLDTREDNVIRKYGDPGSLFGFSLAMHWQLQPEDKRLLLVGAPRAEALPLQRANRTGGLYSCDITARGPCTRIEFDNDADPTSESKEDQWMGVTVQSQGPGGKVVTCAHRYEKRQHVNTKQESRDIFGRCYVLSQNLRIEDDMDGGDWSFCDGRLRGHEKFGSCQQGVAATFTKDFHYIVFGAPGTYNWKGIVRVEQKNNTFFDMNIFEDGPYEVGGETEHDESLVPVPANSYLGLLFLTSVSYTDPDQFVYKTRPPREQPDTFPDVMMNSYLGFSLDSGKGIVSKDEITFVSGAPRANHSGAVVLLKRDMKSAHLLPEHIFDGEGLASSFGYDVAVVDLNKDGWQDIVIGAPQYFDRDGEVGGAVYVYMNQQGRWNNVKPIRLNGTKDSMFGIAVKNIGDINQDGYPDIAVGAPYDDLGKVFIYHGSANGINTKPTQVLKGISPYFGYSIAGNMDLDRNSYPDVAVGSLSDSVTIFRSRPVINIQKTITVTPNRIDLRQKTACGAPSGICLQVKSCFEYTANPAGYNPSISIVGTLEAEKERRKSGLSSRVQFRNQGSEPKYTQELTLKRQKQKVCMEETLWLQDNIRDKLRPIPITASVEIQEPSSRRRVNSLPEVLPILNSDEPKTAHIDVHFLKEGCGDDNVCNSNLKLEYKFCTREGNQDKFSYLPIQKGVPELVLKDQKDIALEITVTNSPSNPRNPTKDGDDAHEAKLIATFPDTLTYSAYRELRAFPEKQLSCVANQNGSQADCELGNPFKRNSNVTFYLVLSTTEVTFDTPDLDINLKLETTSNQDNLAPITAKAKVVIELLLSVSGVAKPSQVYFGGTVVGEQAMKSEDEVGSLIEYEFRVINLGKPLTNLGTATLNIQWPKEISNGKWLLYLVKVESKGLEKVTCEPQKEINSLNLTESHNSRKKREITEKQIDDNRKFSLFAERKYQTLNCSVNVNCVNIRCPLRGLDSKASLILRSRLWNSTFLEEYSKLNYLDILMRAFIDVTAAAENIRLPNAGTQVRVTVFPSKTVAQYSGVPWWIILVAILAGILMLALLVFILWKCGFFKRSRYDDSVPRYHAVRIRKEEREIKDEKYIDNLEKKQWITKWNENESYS
# M4 = molecular target: T26, M4; assay: scFv-phage ELISA
# T26 construct: also called PD1 mutant M4
# M11 [6] = molecular target: T11, M11; assay: ELISA, 1 ug/ml
# ITGA6-Fc [7] = molecular target: T25, ITGA6-Fc; assay: ELISA, 1 ug/ml
binder,measurement,setting,value
B1,Kd,PD1-hFc,0.0253 nM
same,koff,PD1-hFc,7.78e-06 s⁻¹
same,kon,PD1-hFc,308000 M⁻¹ s⁻¹
same,"EC50 [nM], PD1/PD-L1 blockade bioassay",[1],1.98 nM
same,EC50,[2],1.64 nM
B2,OD490,M12,3.9
same,OD490,[3],2.1
same,OD490,M5-1,0.6
same,OD490,M8,1.7
same,OD490,M5,1.3
same,OD490,M1-1,3.8
same,OD490,M2-1,3.8
same,OD490,M14,4
same,OD490,M11 [4],0.3
same,OD490,M2,0.3
same,OD490,M5-2,3.9
same,OD490,M1-2,3.9
same,OD490,M7-2,0.4
same,OD490,M9,3.9
same,OD490,M7,0.3
same,OD490,M1,3.7
same,OD490,M7-1,0.4
same,OD490,M10,3.8
same,OD490,M3,2
same,OD490,M13,4
same,OD490,M2-2,3.9
same,OD490,M6,3.9
same,OD490,ITGA6-Fc [5],0.3
same,OD490,M4,3.9
same,"EC50 [nM], PD1/PD-L1 blockade bioassay",[1],8.64 nM
B3,Kd,PD1-hFc,0.0691 nM
same,koff,PD1-hFc,2.14e-05 s⁻¹
same,kon,PD1-hFc,310000 M⁻¹ s⁻¹
same,"EC50 [nM], PD1/PD-L1 blockade bioassay",[1],1.51 nM
same,EC50,[2],1.67 nM
B4,Kd,PD1-hFc,0.0477 nM
same,koff,PD1-hFc,1.41e-05 s⁻¹
same,kon,PD1-hFc,296000 M⁻¹ s⁻¹
same,"EC50 [nM], PD1/PD-L1 blockade bioassay",[1],1.68 nM
same,EC50,[2],0.906 nM
B5,Kd,PD1-hFc,0.166 nM
same,koff,PD1-hFc,6.39e-05 s⁻¹
same,kon,PD1-hFc,385000 M⁻¹ s⁻¹
same,"EC50 [nM], PD1/PD-L1 blockade bioassay",[1],1.3 nM
same,EC50,[2],2.03 nM
B6,Kd,PD1-hFc,≤ 0.001 nM
same,koff,PD1-hFc,≤ 1e-07 s⁻¹
same,kon,PD1-hFc,181000 M⁻¹ s⁻¹
same,"EC50 [nM], PD1/PD-L1 blockade bioassay",[1],2.16 nM
same,EC50,[2],2 nM
B7,Kd,PD1-hFc,0.0124 nM
same,koff,PD1-hFc,2.74e-06 s⁻¹
same,kon,PD1-hFc,220000 M⁻¹ s⁻¹
same,"EC50 [nM], PD1/PD-L1 blockade bioassay",[1],1.21 nM
same,EC50,[2],1.45 nM
B8,OD490,M11 [6],1.7
same,OD490,ITGA6-Fc [7],0.3
